{"source": "paper PMC7470827", "key": {"[1]": {"target": "MBP-tagged Tlg2 SNARE motif (residues 258-327) (Chaetomium thermophilum)", "test": "AUC; sedimentation velocity, 42,000 rpm, 20°C, gel filtration buffer; MBP-Tlg2(258-327) 9 µM, Tlg2(79-200) 72 µM, Tlg2(258-327) 168 µM; c(S) by SEDFIT"}, "[2]": {"target": "Untagged Tlg2 SNARE motif (residues 258-327) (Chaetomium thermophilum)", "test": "AUC; sedimentation velocity, 42,000 rpm, 20°C, gel filtration buffer; MBP-Tlg2(258-327) 9 µM, Tlg2(79-200) 72 µM, Tlg2(258-327) 168 µM; c(S) by SEDFIT"}, "Syntaxin-16 N-peptide": {"target": "Syntaxin-16 N-peptide (UniProt Q8BVI5)", "sequence (Q8BVI5 1-27)": "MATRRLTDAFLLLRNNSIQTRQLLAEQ", "details": "cited from earlier work"}}, "data": [{"substance": "MBP-tagged Tlg2 SNARE motif (residues 258-327) (domain or fragment)", "values": [{"measurement": "stoichiometry N", "setting": "[1]", "result": 4}]}, {"substance": "Untagged Tlg2 SNARE motif (residues 258-327) (domain or fragment)", "values": [{"measurement": "stoichiometry N", "setting": "[2]", "result": 4}]}, {"substance": "Vps45 (from UniProt P97390)", "values": [{"measurement": "Kd", "setting": "Syntaxin-16 N-peptide", "result": 27, "unit": "nM"}]}]}
